The values that follow come from patent US20170129962A1 (Hoffmann-La Roche, published 2017).

Experiment [1] has as its target T1, human Ang-2-RBD-Fc (human, UniProt O15123 275-496, limits assumed).
T1 construct: domain: RBD; Analyte in solution; not shown: Fc part
T1 sequence (looked up): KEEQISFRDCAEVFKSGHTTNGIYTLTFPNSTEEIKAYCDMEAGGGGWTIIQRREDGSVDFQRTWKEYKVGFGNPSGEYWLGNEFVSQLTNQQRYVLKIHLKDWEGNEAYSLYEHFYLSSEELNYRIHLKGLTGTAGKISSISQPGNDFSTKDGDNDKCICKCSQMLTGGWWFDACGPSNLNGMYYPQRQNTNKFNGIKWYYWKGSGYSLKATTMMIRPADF
Kind of experiment: SPR (Biacore T200), bispecific antibody captured by anti-human F(ab')2, Ang2-RBD-Fc as analyte, 1:1 Langmuir. As for the experimental part: (§1) Binding of indicated antibodies to human Ang-2-RBD-Fc was investigated by surface plasmon resonance using a BIACORE® T200 instrument (GE Healthcare). Around 8000 (RU) of goat anti human F(ab′)₂ (10 μg/ml anti human F(ab)′₂; Order Code: 28958325; GE Healthcare Bio-Sciences AB, Sweden) were coupled on a Series S CMS chip (GE Healthcare BR-1005-30) at pH 5.0 by using an amine coupling kit supplied by the GE Healthcare. HBS-N (10 mM HEPES, 150 mM NaCl pH 7.4, GE Healthcare) was used as running buffer during the immobilization procedure. For the following kinetic characterization, sample and running buffer was PBS-T (10 mM phosphate buffered saline including 0.05% Tween20) at pH 7.4. The flow cell was set to 25° C.—and the sample block set to 12° C.—and primed with running buffer twice prior to kinetic characterization.
(§2) The bispecific antibody was captured by injecting a 5 nM solution for 25 sec at a flow of 5 μl/min. The association was measured by injection of human Ang2-RBD-Fc in various concentrations in solution for 120 sec at a flow of 30 μl/min starting with 100 nM in 1:3 serial dilutions. The dissociation phase was monitored for up to 180 sec and triggered by switching from the sample solution to running buffer. The surface was regenerated by 60 sec washing with a Glycine pH 2.1 solution at a flow rate of 30 μl/min. Bulk refractive index differences were corrected by subtracting the response obtained from a goat anti human F(ab′)₂ surface. Blank injections are also subtracted (=double referencing). For calculation of apparent KD the Langmuir 1:1 model was used.
(§3) Binding of the multispecific antibodies to their respective target antigens, i.e. ANG2 and VEGF, was assessed by Biacore® as described in the general methods section.

In experiment [2] the target is T1, human Ang-2-RBD-Fc. Kind of experiment: SPR (Biacore T200), bispecific antibody captured by anti-human F(ab')2, Ang2-RBD-Fc as analyte, 1:1 Langmuir, apparent KD. As for the experimental part: as §1, §2
The target in experiment [3] is T2, human VEGFA-121 (VEGF-A-121-His) (human, UniProt P15692-9 27-147).
T2 construct: Captured on the chip through an anti-His antibody; not shown: His tag
T2 sequence (looked up): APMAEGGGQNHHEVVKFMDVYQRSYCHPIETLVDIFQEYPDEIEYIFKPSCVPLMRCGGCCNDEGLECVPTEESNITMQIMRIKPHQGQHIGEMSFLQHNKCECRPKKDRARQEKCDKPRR
Kind of experiment: SPR (Biacore T200), VEGF-A-121-His captured by anti-His antibody, bispecific antibody as analyte, 1:1 Langmuir. As for the experimental part:
Around 10000 (RU) of anti His antibody (1 μg/ml anti His antibody; Order Code: 28995056; GE Healthcare Bio-Sciences AB, Sweden) were coupled on a Series S CM5 chip (GE Healthcare BR-1005-30) at pH 5.0 by using an amine coupling kit supplied by the GE Healthcare. HBS-N (10 mM HEPES, 150 mM NaCl pH 7.4, GE Healthcare) was used as running buffer during the immobilization procedure. For the following kinetic characterization, sample and running buffer was PBS-T (10 mM phosphate buffered saline including 0.05% Tween20) at pH 7.4. The flow cell was set to 25° C.—and the sample block set to 12° C.—and primed with running buffer twice prior to kinetic characterization.
as §3

Experiment [4] deals with T3, human IL17 (human, UniProt Q16552 24-155).
T3 construct: for that reason an apparent KD is reported; also called IL17-A
T3 sequence (looked up): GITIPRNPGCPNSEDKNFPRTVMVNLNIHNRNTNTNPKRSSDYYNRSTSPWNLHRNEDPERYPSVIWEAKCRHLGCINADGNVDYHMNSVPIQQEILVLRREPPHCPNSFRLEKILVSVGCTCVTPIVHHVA
Kind of experiment: SPR (Biacore), bispecific antibody captured by anti-human F(ab')2, human IL17 as analyte, 1:1 Langmuir, apparent KD. As for the experimental part:
(§4) Around 6000 resonance units (RU) of the capturing system (15 μg/ml goat anti human F(ab′)2; Order Code: 28958325; GE Healthcare Bio-Sciences AB, Schweden) were coupled on a CMS chip at pH 5.0 by using an amine coupling kit supplied by the GE Healthcare. The sample and system buffer was PBS-T (10 mM phosphate buffered saline including 0.05% Tween 20) pH 7.4. The bispecific antibody was captured by injecting a 50 nM solution for 90 sec at a flow of 10 μl/min. Association was measured by injection human IL17 in various concentrations in solution for 3 min at a flow of 30 μl/min starting with 50 nM in 1:1 serial dilutions. The dissociation phase was monitored for up to 10 min and triggered by switching from the sample solution to running buffer. The surface was regenerated twice by 60 sec wash with a 10 mM glycine pH 2.1 solution at a flow rate of 30 μl/min. Bulk refractive index differences were corrected by subtracting the response obtained from a goat anti human F(ab′)2 surface. Blank injections are also subtracted (=double referencing). For calculation of apparent KD and other kinetic parameters, the Langmuir 1:1 model was used.
(§5) Binding of the multispecific antibodies to their respective target antigens, i.e. IL17 and TWEAK, was assessed by Biacore® as described in the general methods section.

A further experiment concerns the target T4, TWEAK (human, UniProt O43508 94-249, limits assumed).
T4 construct: The method paragraph says only 'TWEAK'; also called human TWEAK; TNF-related weak inducer of apoptosis
T4 sequence (looked up): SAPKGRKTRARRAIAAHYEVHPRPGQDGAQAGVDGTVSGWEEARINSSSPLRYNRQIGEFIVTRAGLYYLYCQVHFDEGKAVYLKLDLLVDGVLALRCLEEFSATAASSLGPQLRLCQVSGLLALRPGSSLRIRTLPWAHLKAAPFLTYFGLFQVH
Kind of experiment: SPR (Biacore), TWEAK amine-coupled on C1 chip, bispecific antibody as analyte, 1:1 Langmuir. The protocol:
Around 100 RU of TWEAK was immobilized on the C1 chip surface at pH 5.0 using an amine coupling kit supplied by the GE Healthcare. The sample and system buffer was PBS-T (10 mM phosphate buffered saline including 0.05% Tween 20) pH 7.4. Association was measured by injection the bispecific antibody in various concentrations in solution for 3 min at a flow of 30 μl/min starting with 50 nM in 1:1 serial dilutions. The dissociation phase was monitored for up to 10 min and triggered by switching from the sample solution to running buffer. The surface was regenerated three times by 30 sec wash with a 3 M MgCl2 solution at a flow rate of 30 μl/min. Bulk refractive index differences were corrected by subtracting the response obtained from a blank-coupled surface. Blank injections are also subtracted (=double referencing). For calculation of KD and other kinetic parameters, the Langmuir 1:1 model was used.
as §5

In experiment [5] the target is T3, human IL17. Kind of experiment: SPR (Biacore), bispecific antibody captured by anti-human F(ab')2, human IL17 as analyte, 1:1 Langmuir. The protocol: as §4, §5

B1: Ang2VEGF-0477 (bispecific antibody, human IgG1, kappa)
light 1: QPGLTQPPSVSVAPGQTARITCGGNNIGSKSVHWYQQKPGQAPVLVVYDDSDRPSGIPERFSGSNSGNTATLTISRVEAGDEADYYCQVWDSSSDHYVFGTGTKVTVLRTVAAPSVFIFPPSDEKLKSGTASVVCLLNNFYPREAKVQWKVDNALQSGNSQESVTEQDSKDSTYSLSSTLTLSKADYEKHKVYACEVTHQGLSSPVTKSFNRGEC
heavy 1: not shown
light 2: DIQMTQSPSSLSASVGDRVTITCSASQDISNYLNWYQQKPGKAPKVLIYFTSSLHSGVPSRFSGSGSGTDFTLTISSLQPEDFATYYCQQYSTVPWTFGQGTKVEIKSSASTKGPSVFPLAPSSKSTSGGTAALGCLVKDYFPEPVTVSWNSGALTSGVHTFPAVLQSSGLYSLSSVVTVPSSSLGTQTYICNVNHKPSNTKVDKKVEPKSC
heavy 2: not shown
notes: CrossMAb CH1-CL, knob-into-hole with S354C/Y349C
In the case of B1, the koff with human Ang-2-RBD-Fc [1] turned out to be 0.00823 s⁻¹; in experiment [3] it was 6.1e-05 s⁻¹. In addition, the figures for the kon (in the experiment with human Ang-2-RBD-Fc [1]; in experiment [3]) were 2.19e+06 M⁻¹ s⁻¹ and 19500 M⁻¹ s⁻¹, respectively. The Kd was 4 nM with human Ang-2-RBD-Fc [2] and 3 nM in experiment [3].

B2: TweakIL17-0129 (bispecific antibody, human IgG4 S228P, kappa)
light 1: DIVMTQSPLSLPVTPGEPASISCRSSQSLVHSNGDTYFHWYLQKPGQSPQLLIYKVSNRFSGVPDRFSGSGSGTDFTLKISRVEAEDVGVYYCSQTTHAPFTFGQGTKLEIKRTVAAPSVFIFPPSDEKLKSGTASVVCLLNNFYPREAKVQWKVDNALQSGNSQESVTEQDSKDSTYSLSSTLTLSKADYEKHKVYACEVTHQGLSSPVTKSFNRGEC
heavy 1: EVQLVESGGGLVQPGGSLRLSCAASGFSLDSYGVHWVRQATGKGLEWVSVIWSDGTTTYNSALKSRFTISRENAKNSLYLQMNSLRAGDTAVYYCARDTHYRLYYYAMDYWGQGTTVTVSSASTKGPSVFPLAPCSRSTSESTAALGCLVEDYFPEPVTVSWNSGALTSGVHTFPAVLQSSGLYSLSSVVTVPSSSLGTKTYTCNVDHKPSNTKVDKRVESKYGPPCPPCPAPEFEGGPSVFLFPPKPKDTLMISRTPEVTCVVVDVSQEDPEVQFNWYVDGVEVHNAKTKPREEQFNSTYRVVSVLTVLHQDWLNGKEYKCKVSNKGLPSSIEKTISKAKGQPREPQVCTLPPSQEEMTKNQVSLSCAVKGFYPSDIAVEWESNGQPENNYKTTPPVLDSDGSFFLVSRLTVDKSRWQEGNVFSCSVMHEALHNHYTQKSLSLSLGK
light 2: DIQMTQSPSSVSASVGDRVTITCQASQNIYSNLAWYQQKPGKAPKLLIYTASYLASGVPSRFSGSGSGTDYTLTISSLQPEDFATYYCQTAYYNSRPDTVAFGGGTKVEIKSSASTKGPSVFPLAPCSRSTSESTAALGCLVKDYFPEPVTVSWNSGALTSGVHTFPAVLQSSGLYSLSSVVTVPSSSLGTKTYTCNVDHKPSNTKVDKRVESKYG
heavy 2: QVQLVQSGAEVKKPGSSVKVSCKASGFDFSTYYMSWVRQAPGQGLEWMGTVYVRQGTTYYASWLNGRVTITADESTSTAYMELSSLRSEDTAVYYCARGGYNYDDAFVIWGQGTLVTVSSASVAAPSVFIFPPSDEQLKSGTASVVCLLNNFYPREAKVQWKVDNALQSGNSQESVTEQDSKDSTYSLSSTLTLSKADYEKHKVYACEVTHQGLSSPVTKSFNRGECPPCPPCPAPEFEGGPSVFLFPPKPKDTLMISRTPEVTCVVVDVSQEDPEVQFNWYVDGVEVHNAKTKPREEQFNSTYRVVSVLTVLHQDWLNGKEYKCKVSNKGLPSSIEKTISKAKGQPREPQVYTLPPCQEEMTKNQVSLWCLVKGFYPSDIAVEWESNGQPENNYKTTPPVLDSDGSFFLYSRLTVDKSRWQEGNVFSCSVMHEALHNHYTQKSLSLSLGK
notes: as for B1
Take B2: in the experiment with human IL17 [4], the Kd was under 0.1 nM. Besides, in the experiment with TWEAK, the Kd was under 0.1 nM, the koff was 2.64e-05 s⁻¹ and the kon was determined as 707000 M⁻¹ s⁻¹. In the experiment with human IL17 [5], this molecule gave a koff of 0.000204 s⁻¹ and a kon of 1.09e+07 M⁻¹ s⁻¹.
